The results in this text go back to patent US20210024654A1 (AMPHIVENA THERAPEUTICS, published 2021).

This assay has as its target cynomolgus CD33 (cynomolgus). Kind of assay: flow cytometry KDs on CHO cells, cyno CD33 / human CD33. On the technique in general: Flow cytometry measures light scatter and fluorescence of single cells or particles in a stream.

Substitutions are numbered along the chain they refer to.

B1: CD33/CD3 tandem diabody 08 (bispecific antibody)
chain: QSVLTQPPSASGTPGQRVTISCSGSRSNIGSNTVNWYQQLPGTAPKLLIYGNNQRPSGVPDRFSGSKSGSSASLAISGLQSEDEADYYCATWDDSLIGWVFGGGTKLTVLGGSGGSEVQLVESGGGLVQPGGSLRLSCAASGFTFSTYAMNWVRQAPGKGLEWVGRIRSKYNNYATYYADSVKDRFTISRDDSKNSLYLQMNSLKTEDTAVYYCARHGNFGNSYVSYFAYWGQGTLVTVSSGGSGGSDIQMTQSPSSLSASVGDRVTITCRSSTGAVTTSNYANWVQQKPGKAPKALIGGTNKRAPGVPSRFSGSLIGDKATLTISSLQPEDFATYYCALWYSNLWVFGQGTKVEIKGGSGGSQVQLVQSGAEVKKPGASVKVSCKASGYTFTSYDINWVRQAPGQGLEWMGWMNPNSGNTGFAQKFQGRVTMTRDTSTSTVYMELSSLRSEDTAVYYCARDRANTDFSYGMDVWGQGTLVTVSSAAAGSHHHHHH
Consider B1, for which the KD ratio CynoCD33/huCD33 amounted to 0.6.

B2: CD33/CD3 tandem diabody 22 (bispecific antibody)
chain: DIQMTQSPSSLSASVGDRVTITCRSSTGAVTTSNYANWVQQKPGKAPKALIGGTNKRAPGVPSRFSGSLIGDKATLTISSLQPEDFATYYCALWYSNLWVFGQGTKVEIKGGSGGSQVQLVQSGAEVKKPGSSVKVSCKASGGTFSSYGISWVRQAPGQGLEWMGGIIPIFGSAHYAQKFQGRVTITADESTSTAYMELSSLRSEDTAVYYCAREYYYDSSEWAFDIWGQGTLVTVSSGGSGQSVLTQPPSASGTPGQRVTISCSGSSSNIGSNTVKWYQQLPGTAPKLLIYSNNQRSSGVPDRFSGSKSGSSASLAISGLQSEDEADYYCAAWDDSLNGYVFGGGTKLTVLGGSGGSEVQLVESGGGLVQPGGSLRLSCAASGFTFSTYAMNWVRQAPGKGLEWVGRIRSKYNNYATYYADSVKDRFTISRDDSKNSLYLQMNSLKTEDTAVYYCARHGNFGNSYVSYFAYWGQGTLVTVSSAAAGSHHHHHH
B2: the KD ratio CynoCD33/huCD33 was 0.6.

B3: CD33/CD3 tandem diabody 23 (bispecific antibody)
chain: DIQMTQSPSSLSASVGDRVTITCRSSTGAVTTSNYANWVQQKPGKAPKGLIGGTNKRAPGVPSRFSGSLIGTDFTLTISSLQPEDFATYYCALWYSNLWVFGQGTKVEIKGGSGGSQVQLVQSGAEVKKPGSSVKVSCKASGGTFSSYGISWVRQAPGQGLEWMGGIIPIFGSAHYAQKFQGRVTITADESTSTAYMELSSLRSEDTAVYYCAREYYYDSSEWAFDIWGQGTLVTVSSGGSGQSVLTQPPSASGTPGQRVTISCSGSSSNIGSNTVKWYQQLPGTAPKLLIYSNNQRSSGVPDRFSGSKSGSSASLAISGLQSEDEADYYCAAWDDSLNGYVFGGGTKLTVLGGSGGSEVQLVESGGGLVQPGGSLRLSCAASGFTFSTYAMNWVRQAPGKGLEWVGRIRSKYNNYATYYADSVKDRFTISRDDSKNSLYLQMNSLKTEDTAVYYCARHGNFGNSYVSWFAYWGQGTLVTVSS
B3: the KD ratio CynoCD33/huCD33 was determined as 1.9.

B4: CD33/CD3 tandem diabody 07 (bispecific antibody)
chain: DIQMTQSPSSLSASVGDRVTITCRSSTGAVTTSNYANWVQQKPGKAPKALIGGTNKRAPGVPSRFSGSLIGDKATLTISSLQPEDFATYYCALWYSNLWVFGQGTKVEIKGGSGGSQVQLQESGGGVVQPGRSLRLSCAASGFSFSNYGIHWVRQAPGKGLEWVALISYDGNKKFYADSVKGRFAISRDTSKNTVDLQMTSLRPEDTAVYYCAKDRLESAAFDYWGQGTLVTVSSGGSGGSSYELTQPPSVSVAPGQTAMITCGGNNIGSTTVHWYQQKPGQAPVLVVYDDNERPSGIPERFSGSNSGSTATLTINRVEAGDEADYYCQVWDSGSDHVVFGGGTKLTVLGGSGGSEVQLVESGGGLVQPGGSLRLSCAASGFTFSTYAMNWVRQAPGKGLEWVGRIRSKYNNYATYYADSVKDRFTISRDDSKNSLYLQMNSLKTEDTAVYYCARHGNFGNSYVSYFAYWGQGTLVTVSSAAAGSHHHHHH
With B4, the KD ratio CynoCD33/huCD33 worked out at 45.8.

B5: CD33/CD3 tandem diabody 13 (bispecific antibody)
chain: DIQMTQSPSSLSASVGDRVTITCRSSTGAVTTSNYANWVQQKPGKAPKGLIGGTNKRAPGVPSRFSGSLIGTDFTLTISSLQPEDFATYYCALWYSNLWVFGQGTKVEIKGGSGGSQVQLVQSGAEVKKPGASVKVSCKASGYTFTSYDINWVRQAPGQGLEWMGWMNPNSGNTGFAQKFQGRVTMTRDTSTSTVYMELSSLRSEDTAVYYCARDRAVTDYYYGMDVWGQGTLVTVSSGGSGQSVLTQPPSASGTPGQRVTISCSGSRSNIGSNTVNWYQQLPGTAPKLLIYGNNQRPSGVPDRFSGSKSGTSASLAISGLQSEDEADYYCATWDDSLIGWVFGGGTKLTVLGGSGGSEVQLVESGGGLVQPGGSLRLSCAASGFTFSTYAMNWVRQAPGKGLEWVGRIRSKYNNYATYYADSVKDRFTISRDDSKNSLYLQMNSLKTEDTAVYYCARHGNFGNSYVSWFAYWGQGTLVTVSS
Turning to B5, the KD ratio CynoCD33/huCD33 is 1.6.

B6: CD33/CD3 tandem diabody 02 (bispecific antibody)
chain: DIQMTQSPSSLSASVGDRVTITCRSSTGAVTTSNYANWVQQKPGKAPKGLIGGTNKRAPGVPARFSGSGSGTDFTLTISSLQPEDFATYYCALWYSNLWVFGQGTKVEIKGGSGGSQVQLVQSGAEVKKPGASVKVSCKASGYTFTSYDINWVRQAPGQGLEWMGWMNPNSGNTGFAQKFQGRVTMTRDTSTSTVYMELSSLRSEDTAVYYCARDRAVTDYYYGMDVWGQGTLVTVSSGGSGQSVLTQPPSASGTPGQRVTISCSGSRSNIGSNTVNWYQQLPGTAPKLLIYGNNQRPSGVPDRFSGSKSGTSASLAISGLQSEDEADYYCATWDDSLIGWVFGGGTKLTVLGGSGGSEVQLVESGGGLVQPGGSLRLSCAASGFTFSTYAMNWVRQAPGKGLEWVGRIRSKYNNYATYYADSVKDRFTISRDDSKNSLYLQMNSLKTEDTAVYYCARHGNFGNSYVSWFAYWGQGTLVTVSSAAAGSHHHHHH
As to B6, the KD ratio CynoCD33/huCD33 came out at 1.1.

B7: CD33/CD3 tandem diabody 09 (bispecific antibody)
chain: B6 chain with A63S, G69L, S70I, T72D, D73K, F74A, V218N, Y221F, Y222S, T312S
Regarding B7, the KD ratio CynoCD33/huCD33 turned out to be 1.

B8: CD33/CD3 tandem diabody 01 (bispecific antibody)
chain: B6 chain with V218N, Y221F, Y222S, T312S
With B8, the KD ratio CynoCD33/huCD33 worked out at 0.7.

B9: CD33/CD3 tandem diabody 12 (bispecific antibody)
chain: B6 chain with G49A, A63S, G69L, S70I, T72D, D73K, F74A, W469Y
Regarding B9, the KD ratio CynoCD33/huCD33 was found to be 1.7.

B10: CD33/CD3 tandem diabody 10 (bispecific antibody)
chain: B6 chain with A63S, G69L, S70I, T72D, D73K, F74A, V218N, Y222S, Y223F
As to B10, the KD ratio CynoCD33/huCD33 stood at 0.8.

B11: CD33/CD3 tandem diabody 11 (bispecific antibody)
chain: B6 chain with A63S, G69L, S70I, T72D, D73K, F74A, V218N, Y222S, Y223L
With B11, the KD ratio CynoCD33/huCD33 is 1.2.

B12: CD33/CD3 tandem diabody 04 (bispecific antibody)
chain: B6 chain with V218N, Y222S, Y223L
Turning to B12, the KD ratio CynoCD33/huCD33 was found to be 1.1.

B13: CD33/CD3 tandem diabody 03 (bispecific antibody)
chain: B6 chain with V218N, Y222S, Y223F
Turning to B13, the KD ratio CynoCD33/huCD33 was found to be 0.6.

B14: CD33/CD3 tandem diabody 24 (bispecific antibody)
chain: DIQMTQSPSSLSASVGDRVTITCRSSTGAVTTSNYANWVQQKPGKAPKALIGGTNKRAPGVPSRFSGSLIGDKATLTISSLQPEDFATYYCALWYSNLWVFGQGTKVEIKGGSGGSQVQLVQSGAEVKKPGSSVKVSCKASGGTFDSYAISWVRQAPGQGLEWMGGIIPIFGSAHYSQKFQGRVTITADESTSTAYMELSSLRSEDTAVYYCAREYYYDSSEWAFDIWGQGTLVTVSSGGSGQSVLTQPPSASGTPGQRVTISCSGSSSNIGDNVVNWYQQLPGTAPKLLIYSTNKRPSGVPDRFSGSKSGSSASLAISGLQSEDEADYYCAAWDDSLSAYVFGGGTKLTVLGGSGGSEVQLVESGGGLVQPGGSLRLSCAASGFTFSTYAMNWVRQAPGKGLEWVGRIRSKYNNYATYYADSVKDRFTISRDDSKNSLYLQMNSLKTEDTAVYYCARHGNFGNSYVSYFAYWGQGTLVTVSSAAAGSHHHHHH
Regarding B14, the KD ratio CynoCD33/huCD33 came to 1.8.

B15: CD33/CD3 tandem diabody 05 (bispecific antibody)
chain: DIQMTQSPSSLSASVGDRVTITCRSSTGAVTTSNYANWVQQKPGKAPKGLIGGTNKRAPGVPARFSGSGSGTDFTLTISSLQPEDFATYYCALWYSNLWVFGQGTKVEIKGGSGGSQVQLVQSGAEVKKPGASVKVSCKASGYTFTSYDINWVRQAPGQGLEWMGWMNPNSGNTGFAQKFQGRVTMTRDTSTSTVYMELSSLRSEDTAVYYCARDRANTDYSFGMDVWGQGTLVTVSSGGSGGQSVLTQPPSASGTPGQRVTISCSGSRSNIGSNTVNWYQQLPGTAPKLLIYGNNQRPSGVPDRFSGSKSGTSASLAISGLQSEDEADYYCATWDDSLIGWVFGGGTKLTVLGGSGGSEVQLVESGGGLVQPGGSLRLSCAASGFTFSTYAMNWVRQAPGKGLEWVGRIRSKYNNYATYYADSVKDRFTISRDDSKNSLYLQMNSLKTEDTAVYYCARHGNFGNSYVSWFAYWGQGTLVTVSSAAAGSHHHHHH
Consider B15, for which the KD ratio CynoCD33/huCD33 came to 0.8.

B16: CD33/CD3 tandem diabody 06 (bispecific antibody)
chain: B15 chain with F223L
As to B16, the KD ratio CynoCD33/huCD33 came to 0.8.
